From patent publication US8227212B2, “Cell that expresses a sulfatase and a formylglycine generating enzyme” (Shire Human Genetic Therapies, Inc., priority 2003, dated 2012)
Like-named read-outs stand apart in the source and are kept apart here. Values belong to the substance of their own block, whether it stands above or below them.

Experiments:
FGE [1] = target: T1, FGE (Bos taurus, UniProt Q0P5L5); test: Affinity matrices: Affigel 10 derivatized with 16mer peptides, binding of FGE; set-up: species or system bovine
T1 construct: the soluble fraction (reticuloplasm) of bovine testis microsomes served as the starting material; from tissue; host or cells: bovine testis rough microsomes, reticuloplasm
T1 sequence (Q0P5L5 34-374): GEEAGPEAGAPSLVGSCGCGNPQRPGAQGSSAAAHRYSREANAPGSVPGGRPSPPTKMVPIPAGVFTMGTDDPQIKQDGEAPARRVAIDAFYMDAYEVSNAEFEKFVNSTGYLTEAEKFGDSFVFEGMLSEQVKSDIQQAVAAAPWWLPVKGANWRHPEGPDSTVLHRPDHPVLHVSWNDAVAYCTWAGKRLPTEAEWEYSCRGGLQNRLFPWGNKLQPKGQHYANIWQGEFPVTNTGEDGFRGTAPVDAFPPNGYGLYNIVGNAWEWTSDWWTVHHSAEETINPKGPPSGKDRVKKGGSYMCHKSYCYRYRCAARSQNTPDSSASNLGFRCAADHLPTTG
Experimental: Bovine testes were obtained from the local slaughter house and stored for up to 20 h on ice. The parenchyme was freed from connective tissue and homogenized in a waring blendor and by three rounds of motor pottering. Preparation of rough microsomes (RM) by cell fractionation of the obtained homogenate was performed as described (Meyer et al., J. Biol. Chem., 2000, 275:14550-14557) with the following modifications. Three differential centrifugation steps, 20 minutes each at 4° C., were performed at 500 g (JA10 rotor), 3000 g (JA10) and 10000 g (JA20). From the last supernatant the RM membranes were sedimented (125000 g, Ti45 rotor, 45 min, 4° C.), homogenized by motor pottering and layered on a sucrose cushion (50 mM Hepes, pH 7.6, 50 mM KAc, 6 mM MgAc2, 1 mM EDTA, 1.3 M sucrose, 5 mM β-mercaptoethanol). RMs were recovered from the pellet after spinning for 210 minutes at 45000 rpm in a Ti45 rotor at 4° C. Usually 100000-150000 equivalents RM, as defined by Walter and Blobel (Methods Enzymol.,1983, 96:84-93), were obtained from 1 kg of testis tissue. The reticuloplasm, i.e. the luminal content of the RM, was obtained by differential extraction at low concentrations of deoxy Big Chap, as described (Fey et al., J. Biol. Chem., 2001, 276:47021-47028). For FGE purification, 95 ml of reticuloplasm were dialyzed for 20 h at 4° C. against 20 mM Tris/HCl, pH 8.0, 2.5 mM DTT, and cleared by centrifugation at 125000 g for 1 h. 32 ml-aliquots of the cleared reticuloplasm were loaded on a MonoQ HR10/10 column (Amersham Biosciences, Piscataway, N.J.) at room temperature, washed and eluted at 2 ml/min with a linear gradient of 0 to 0.75 M NaCl in 80 ml of the Tris buffer. […] An aliqout of the eluate was substituted with 1 mg/ml bovine serum albumin, dialyzed against buffer A and analyzed for activity. […] The polypeptide composition of the starting material and preparations obtained after the chromatographic steps were monitored by SDSPAGE (15% acrylamide, 0.16% bisacrylamide) and staining with SYPRO Ruby (Bio-Rad Laboratories). […]

FGE [2] = target: T1, FGE; test: In vitro FGE activity assay with [35S] ASA fragments (ribosome-associated nascent chain complexes) as substrate; type: biochemical, bovine
Experimental: We had developed an assay for determining FGE activity in microsome extracts using in vitro synthesized [^35S] ASA fragments as substrate. The fragments were added to the assay mixture as ribosome-associated nascent chain complexes. The quantitation of the product included tryptic digestion, separation of the peptides by RP-HPLC and identification and quantitation of the [^35S]-labeled FGly containing tryptic peptide by a combination of chemical derivatization to hydrazones, RP-HPLC separation and liquid scintillation counting (Fey et al., J. Biol. Chem., 2001, 276:47021-47028). For monitoring the enzyme activity during purification, this cumbersome procedure needed to be modified. […] We synthesized the 23mer peptide P23 (SEQ ID NO:33), which corresponds to ASA residues 60-80 with an additional N-acetylated methionine and a C-amidated serine residue to protect the N- and C-terminus, respectively. The cysteine and the FGly containing forms of P23 could be identified and quantified by matrix-assisted laser desorption/ionisation time of flight (MALDI-TOF) mass spectrometry. The presence of the FGly residue in position 11 of P23 was verified by MALDI-TOF post source decay mass spectrometry (see Peng et al., J. Mass Spec., 2003, 38:80-86). […]

FGE [3] = target: T1, FGE; test: In vitro assay for FGE with peptide P23 as substrate (MALDI-TOF); type: biochemical; conditions: incubation with extracts from microsomes of bovine pancreas or bovine testis
Experimental: For monitoring the activity of FGE, the N-acetylated and C-amidated 23mer peptide P23 ([…]) (SEQ ID NO:33) was used as substrate. The conversion of the Cysteine residue in position 11 to FGly was monitored by MALDI-TOF mass spectrometry. A 6 μM stock solution of P23 in 30% acetonitrile and 0.1% trifluoroacetic acid (TFA) was prepared. Under standard conditions 6 pmol of P23 were incubated at 37° C. with up to 10 μl enzyme in a final volume of 30 μl 50 mM Tris/HCl, pH 9.0, containing 67 mM NaCl, 15 μM CaCl2, 2 mM DTT, and 0.33 mg/ml bovine serum albumin. To stop the enzyme reaction 1.5 μl 10% TFA were added. […] Activity (pmol product/h) was calculated on the basis of the peak height of the product divided by the sum of the peak heights of P23 and the product.
We had developed an assay for determining FGE activity in microsome extracts using in vitro synthesized [^35S] […] The quantitation of the product included tryptic digestion, separation of the peptides by RP-HPLC and identification and quantitation of the [^35S]-labeled FGly containing tryptic peptide by a combination of chemical derivatization to hydrazones, RP-HPLC separation and liquid scintillation counting (Fey et al., J. Biol. Chem., 2001, 276:47021-47028). […] The cysteine and the FGly containing forms of P23 could be identified and quantified by matrix-assisted laser desorption/ionisation time of flight (MALDI-TOF) mass spectrometry. […]

ARSA, ARSC and ARSE = test: Co-expression of FGE (SUMF1) and sulfatase cDNAs in cell lines, sulfatase activities; type: cell-based, human; conditions: co-transfection with ARSA, ARSC and ARSE cDNAs in various cell lines
Excerpt: To test the effect of FGE (SUMF1) on additional sulfatase activities in normal cells we overexpressed ARSA (SEQ ID NO:14), ARSC (SEQ ID NO:18) and ARSE (SEQ ID NO:22) cDNAs in various cell lines with and without co-transfection of the FGE (SUMF1) cDNA and measured sulfatase activities.
To test for functional conservation of the FGE (SUMF1) gene during evolution we overexpressed ARSA, ARSC and ARSE cDNAs in various cell lines with and without co-transfection of the […] and measured sulfatase activities.

binding of FGE to peptide immobilized to Affigel 10 (FGE [1]): efficiently bound FGE
Substance: Ser69 peptide: variant of ASA65-80 with Cys69 replaced by serine, PVSLSTPSRAALLTGR (SEQ ID NO:35) (a variant of the ASA65-80 peptide, in which the Cys69 was replaced by a Serine)

binding of FGE to peptide immobilized to Affigel 10 (FGE [1]): did not retain FGE activity
inhibition of FGE activity (FGE [2]; added at 10 mM concentration): did not inhibit FGE activity
Substance: scrambled peptide: variant of ASA65-80 with Cys69, Pro71 and Arg73 scrambled, PVSLPTRSCAALLTGR (SEQ ID NO:34) (a variant of the ASA65-80 peptide, in which residues Cys69, Pro71 and Arg73, critical for FGly formation, were scrambled)

The remaining lines, values behind:

Substance: ASA65-80: synthetic 16mer peptide corresponding to ASA residues 65-80 containing the sequence motif required for FGly formation (PVSLCTPSRAALLTGR)
binding of FGE to peptide immobilized to Affigel 10 (FGE [1]): bound FGE efficiently
inhibition of FGE activity (FGE [2]): inhibited the FGE activity

Substance: Ac-MTDFYVPVSLCTPSRAALLTGRS-NH2 [P23]
conversion of the peptide into a FGly containing derivative (FGE [3]): up to 95%

Substance: FGE2 (SUMF2): FGE gene paralog located on human chromosome 7 (SEQ ID NOs: 45, 46)
activity of FGE homologs on overexpressed human sulfatases (ARSA, ARSC and ARSE): much weaker
